The values that follow come from PMC3762817, “Therapeutic Targeting of Tumor Growth and Angiogenesis with a Novel Anti-S100A4 Monoclonal Antibody” (PLoS ONE, 2013).

For this experiment, the target named is T1, human recombinant RAGE-Fc Chimera (human, UniProt Q15109 23-342).
T1 construct: RAGE (receptor for advanced glycation end products), human; also called RAGE receptor; immobilized RAGE; source: bought: R&D Systems
As to the kind of experiment: SPR; Biacore T100; about 1,000 RU of RAGE-Fc immobilised on a CM5 chip by amine coupling; S100A4 0.625-5 µM passed over at 15 µL/min, 60 s contact time; regeneration with 50 mM NaOH. Particulars: both partners purified. On the technique in general: SPR reads the build-up and loss of mass on a sensor chip optically.

T1 sequence (Q15109 23-342, change not shown): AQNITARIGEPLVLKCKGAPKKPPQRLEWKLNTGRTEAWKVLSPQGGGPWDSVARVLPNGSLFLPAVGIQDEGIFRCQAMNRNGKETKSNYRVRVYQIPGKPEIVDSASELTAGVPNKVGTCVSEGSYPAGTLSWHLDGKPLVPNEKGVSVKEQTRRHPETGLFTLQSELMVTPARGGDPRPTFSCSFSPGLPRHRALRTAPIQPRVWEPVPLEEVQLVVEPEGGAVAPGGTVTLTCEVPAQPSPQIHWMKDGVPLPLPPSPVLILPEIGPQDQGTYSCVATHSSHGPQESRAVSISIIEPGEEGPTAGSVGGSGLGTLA

B1: human recombinant S100A4 (natural protein)
chain: not shown
notes: S100A4, human; The His tag is inferred, and its removal is not mentioned; also called S100A4 fusion protein
As for B1, the binding result is recorded as “binds”.
